Laboratory results taken from a protein production outcome set (Wang et al. 2014).

Assay: label from the status in PepcDB records
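Further: failed if final PepcDB status was selected cloned or expressed and not failed if soluble or beyond.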

Q: Which protein production does the source give for “MPIELRRLRALRLAWGVALCLAVSFGIGLPVPILAPVFAVLLLAMRSQPLPLRAAPALALLVLLACGSGLLLIPLLRHAPLAGVLLVGVGVFLTLRYALKGGNGLLANLLVVGLTMIAAAGTSDFTLALSVVEALAKGMLLAVLGTSVVHTLFPEPANAPAPPVPPLLGSEHVSWVALRATLIVMPAFLLALIAPDQYMPLIMKAVSVGQQAGETRARHASRELIGSTLLAGVLAIALWVALSLFVHLWMFFLWVLLFALWQARRLYQAVPSRQSPAYWVSCLTTMLILLGQSVQDSAGGQDVYKAFAVRMALFLAVSVYASAMLIWIDRLRSRRGLLRG” here?
A: failed

Q: With “MPIHSLSLAGFRSIRKLTLELDALNVVVGANGCGKSNLYKSIQLLHAAAEGGLSAALAAEGGAQKAMWAGGTRRGDKARVPKRMILSARLDDYDYELQLGYPEPSCSLFALDPLVKEESLWLAGHGRRPSTLLLERRNQAAFLCGVEGERNSYPASLRAEESLFGQLAEPHRYPELSQVRETLRNWRFYHEFAIWPGSPLRAPQVGIRSPVLAHDGANLAAAFQTIVEIGDHELLHSVLTDAFPDSRFLVDAQQGRFQMLMRRDGLLRPLEAAELSDGTLRFLCLAVALLSPRPPAFMALNEPENSLHPALLPALARLIAEASRHSQLWVTSHSPELAERIRRHRPLKTFQLSLRDGETVLQDDLEHHHHHH” as the sequence, how does the protein production read?
A: failed

Q: With “MPIIGTKELITCDNTDFIHSGNDADRSGFILSVPVFGQDGSLRGSVSAIMLTSALRKLLPGSDYVIVNSGYGFESDQHKMSTALAADSRAFTAADPNLIYSEVIPLSLNDPRSAWRLWAGFPNSRFDNNMDVQSVRQFELAGYAAVAVVTLLALACWYAIGRTMTMQVEAAETLERRVEQRTAQIQHLATHDILTGLPNRGLLADTMDEALRSLRDDEKLAVHCVDLDRFKPVNDTLGHPIGDQLLGAVAKRLKHHAGETAMVARIGGDEFVILQLLLDGNDEAGVLASRVIHALSDEFSIQGHKINIGGSIGIAVFPDDGQNSETLIRNADLALYKAKMEGRGTCRSFEPGMDARLQERRQLESELALGVKKEQFVLHYQPLHDAKTSQLTGFEALVRWNHPRLGLLAPSEFIQLAEETGAIDALGEWIMRRACADAAKWPQPVKVAVNLSPAQFKQQGLSLQVAAALAASGLLPSRLELEITESVLLANNENTLNTLYSLRDLGISIAMDDFGTGYSSLSYLRSFPFNRIKIDRSFVSLMCESSESRAIVKAVAELGTTLGMTTTAEGVETEDQYRLVKENGCTDVQGWYFGRPMPASELHTLFEQPEALTA” as the sequence, how does the protein production read?
A: failed

Q: With “MPIKKNSHVKTTEMNKYPVLQLKRDPEAIHHYLNGEIRILVPTEYQRIKNEISQKRHRTLFDVLMITGMRYVEVQRLWDHKEWYLKKKNIIHLPEEAQKKHKRTQQERTIHPLPGMFELLLDDFFEARKPPAESNWNRDLRKWAKDAGLNPYGLSAKTTRKTLESWCIAAGMLESTVCLRQGHDNLTSMKHYQGLAFSADELKDIEKQLTVWGMLK” as the sequence, how does the protein production read?
A: failed

Q: With “MPIKVKYYGNVVFASDAVCGQAENYATLKAMKEVGNYTISIQTFENAENVYPEEFLAKPVADEHYLTTEDGSVGIKGHYLDIVKELIEKDKVDIIFAGGKLGSLAKLAELTRPYGIPTLEHHHHHH” as the sequence, how does the protein production read?
A: failed

Q: Which protein production does the source give for “MPIPKSAKSDYTKEQKDLVGNICQCKDFYKILNVDKKASPDEIRIAFRKRIREVHPDKCKHPSATEASKVVNNAFSLLMDPAKRRQYDLQ” here?
A: not failed

Q: Which protein production does the source give for “MPIPLEKQNKERRQKILTCSLDLFIEKGYYNTSIRDIIALSEVGTGTFYNYFVDKEDILKNLLEDFAKQIISSISEYYLVEKDLYERFIETKRLTMEVFAQNETLSEIYSRVAGSSAPIDQCLKQFEDRLLEFYSRNIEYGIKKGVFKNVPVSPIAHSILAIEKFSLYKWVVLKAITKEEMIEMVLSFHKTLAVGLLVVND” here?
A: not failed

Q: With “MPIVVFHKGDETFTDEVKDNTNLVVRAGIKQFPYPNLRYQCGMGKCATCACRILAGGEHLPEPNWKEKKQLGDRLAQGYRLACQLWITHDIELRQDAAAPAGGGD” as the sequence, how does the protein production read?
A: failed

Q: Which protein production does the source give for “MPKASDIKKGSAIEHNGKVFFVKEISKLTPSGRAGATLFRMRMYDVATGAKSDESFKADDMINLADFSRRSATFSYVDGNEYVFMDSEDYTPYNFNKEAIEEELLFITEETQGLQILIVDGAPVAIELPSAVDLEIVETAPSIKGASASARTKPATMTTGLTVQVPEYIANGEKVKINTTEHKFMSRALEHHHHHH” here?
A: failed

Q: For “MPKEQPLYLQIVDDLEVKIKKSMTENDKLLSERELSDLYGVSRITIRLTLKELELRDLIYKKQGKGTYVSGIKEPATDLSSTYSFTEQMKKMGKTPKTEILSFEQYQVTPYLSGLLELDPDTEVFELERLRIADDMPLMFERSYIPAQPFQGLSIADLKRKALYDIFAKDYQETIRLAEEEFYASIALDYEAGLLGIKKGDPVLHIIRKTYNDKNILIELTFSIARADQFRYRVQHHPNG”, which protein production is on record?
A: failed

Q: Which protein production does the source give for “MPKIAKELSALEVKRLTCRIDPETGEATEVRYPVGGVSGLLLRITPSGSRQWILRAKVGNRRPDMGLGPYPEISLAQARDKAREMKEKIRSGIDPLEEKRTLKRALLAEQISTLTFQKAMEKYIKMKAKEFRNPRQEKQWTNSLNTYAIPHLGKLPVREIDLPHIKQVLDPIWETKTETANRVRARIENILGWCAIHGYRSAENPARWQGYLDEVYPSPEKIKKRGHFAALPVDDMPEFMRDLKKRTGTAARALEFLILTASRTNEVIGDKRIGKAGVTWQEIDLARKVWTVPADRMKSEKIHRVPLTDSAIELLKGMGEGSPEDLIFPGPKGGIPSNNFLTALLKRMERPITAHGFRSTFKDWARERTAYADEVSELALAHVNSDATRAAYARSELIDKRRLMMADWEQFCMHGETKKESGKVVAIGEGKG” here?
A: failed

Q: For “MPKIIEAIYENGVFKPLQKVDLKEGERIKLRIEEGILDVIKKYQGKFKLTEKDIEKFLEERRLEHHHHHH”, which protein production is on record?
A: not failed

Q: With “MPKKGSDPVWCVVMFDLPVKTKTQRKQATAFRQNLLDLGFCMAQLSVYVQYLPLAAKLSNLVKLIKEKLPPGGDVRILSVSDIQWSKMIRFSSSAEVSGEEKPDQLAIFLEHHHHHH” as the sequence, how does the protein production read?
A: not failed

Q: With “MPKKRENRGRRKGDKGHVGYISCDQCGARVPEDKAVCVTKMYSPVDASLASELEKKGAIIARYPVTKCYCVNCAVFLGIIKIRAENERKQKARLRLEHHHHHH” as the sequence, how does the protein production read?
A: failed

Q: Which protein production does the source give for “MPKLDLDSIERRIGSVYPGRLNAAMDGRSSLRLGDAGGLSQFGVNLVRLEPGAKSSLRHYHMEQDEFVMVTEGALVLVDDQGEHPMVPGDCAAFPAGDPNGHQFVNRTDAPATFLVVGTRTPTETAYYSDMDMMVKQDASGFAFTRKDGSPLTADQIGDDNE” here?
A: not failed

Q: Which protein production does the source give for “MPKLDRYLLSDFTQSFLATLIVLLVVSVGGVLVDILGNIADGRIPARLLLSQVGLQFVAYLPIILPLALMLGLLLALARLYRDSEMAVITAIGVGPTRMLRPLLMLVVPVVVVIGLCSLWLGPWASRTAEAMLEDANRSVLMAGLESGQFTPLSDGGVVYMQTISADGKGLGKIFLQRQQNDRIDVVTADRGALFFEGKTDRYLHLDDGYRTEGPAGGATLDYRLMKFASSDIALPDRTRLHDANDPEVMWTTQLLSDERPAARAQLHERLAPPLLALAFAMLTLPLSRSAPRQQRYGRIMLAFLAYMVGTNLMIVGTQWIANGKAPAALGLWWLTLPLLAVAVWAYARDGRVRRPRARA” here?
A: failed

Q: For “MPKPGILKSKSMFCVIYRSSKRDQTYLYVEKKDDFSRVPEELMKGFGQPQLAMILPLDGRKKLVNADIEKVKQALTEQGYYLQLPPPPEDLLKQHLSVMGQKTDDTNK”, which protein production is on record?
A: not failed

Q: Which protein production does the source give for “MPKSVRAENISRILKRIMKSPVSRVELAEELGLTKTTVGEIAKIFLEKGIVVEEKDSPKGVGRPTKSLKISPNCAYVLGIEVTRDEIAACLIDASMNILAHEAHPLPSQSDREETLNVMYRIIDRAKDMMEKLGSKLSALTVAAPGPIDTERGIIIDPRNFPLSQIPLANLLKEKYGIEVWVENDADMGAVGEKWYTKRDDSFAWILTGKGIGAGIIIDGELYRGENGYAGEIGYTRVFNGNEYVFLEDVCNENVVLKHVLSMGFSSLAEARDSGDVRVKEYFDDIARYFSIGLLNLIHLFGISKIVIGGFFKELGENFLKKIKIEVETHLLYKHSVDMSFSKVQEPVIAFGAAVHALENYLERVTTS” here?
A: not failed

Q: For “MPKTSHPFQLSLLALAVSAVLVSGCNSSDNDDDLATEAQVTGLTLEFAGRYSTGQFDESAAEITAFDPASRRAFVVNALSGAVDVLDMSDPVNPAKIDTLTVADIAADAVVNSVAVANGLVAVAVESNPKTDPGYVAVFGAADLQLRDSIQVGAQPDMVTFTPDGQYVLAANEGEPSDDYQVDPEGSISVVDVSNPASLTVRIADFLAFNSQESDLKASGVRIYGPGATVAQDLEPEYITVSADSRAAWVSLQENNALAKLDIDTATVTGILPLGFKDYGVEGQGIDASDDDGVINIQRWPGVVGIYHPDAIDSYQANGETFIVTANEGDARAWGEDDADYWNGDSSRGFVEELRVKHLVHPDGFARRIGDDMPSQLTALAEGALLNPSVFDYCGATAGAANACRDDDQLGRLNISWVQGYRVDENGAPVMFNASGAEDPDGTLLMYDQLYSYGTRSLAIWNEDGELVWDSGDAIEQFLASEDCRLGTARSIPCSDHFNSAHDEGMAFDSRSDAKGPEPEAVTVATFGNKTFAFLGLERMGGILVYDVTDPASPVQVDYLNTRDDWTTVDTASVLETAGDLGVESITVVAADDSPTGEPLLITGNEVSGTTAIYRVKLELTD”, which protein production is on record?
A: failed

Q: For “MPKVYNSIVVDAPVERVWSRIRNFHDFSWAPSLIKSCKKVGGGGGYSVGARRLLNGEFLDTLIAYSEIERRIMYSMDEGPSPVSSGEIYNYVGNLHLLPVTIDDTTFVEWSGSWESASTEAVEYMNTVYRSLLADLAAEFTSESRRSEWIDQLEHHHHHH”, which protein production is on record?
A: not failed

Q: With “MPLASGQVFAGFTIVRLVGTGGMGEVYLAKHPRLPREDALKVLPISVSADDEFRQRFIREADMAATLWHPHIVGVHDRGEFEGRLWISMDYVDGHDAARLLHDKYPKGMPADDVVEIVTAVGDALDYAHQRQLLHRDVKPANILVTEKHGTKRRIMLTDFGIARRTDDVNGLTSTNITVGSMSYTSPEQLMGQPLDGRADQYSLAATAYRLLTGAPPFSHSNPAVVISHHLNSPPPKLGDTKPALAKLDSVMAKALAKDAKDRFDTCHDFAVALAEANKGDESAAPVTAAPPPVITPPVQTAPPTTPLKAQTLPAPPTPPTPLSPSNPQAPTASQPPVFTSSWAGHDDPSGRQPVAVPAPAPPPPPPPSNFGPPPPAYSPPPRKSGGDRRKLIIAAAAIGAVVLLVGGITLAVTSGGDNDSAGAAATTSETASETPVTTTPKKPGEHAYTIADYIRDNKISETPVHRGDPNTPELTMPTPPGWADAGTRTPAWAYSAIVNDPASPTDPPSVISLISKLDGNVDPEKLLEFAPNELQNLTEWEPIGGVTRSNLSGFPSVQLGGSYLKDGKRRAITQKTVVVDIPSGIYVLQINADSLYRDFGALVDVNKAIDKEATIKP” as the sequence, how does the protein production read?
A: failed

Q: Which protein production does the source give for “MPLHPTSQDCVVEQSVDALRERERRFRMLADNMSQLAWTASPRGQVQWYNERWYAYTGATLEAMVALGWRSVVHPEHRERVMARLQYCFATGSVWEDTFALRGKDGAFNWFLSRALPMRDAQGHITHWLGTHTDITAQVNAEEALRELNESLELRVAERTRELAKANELLQVEIAERAQAEEVLRHAQKMDAIGQLTGGIAHDFNNMLSGVLGALDMIRLRIGAQRFGEVDRYVDAAVSSANRAAALTQRLLTFARRQSLSVGTVDINCMVRSMEELLRGTVGNHAQLHIELEEGLSAIQTDEHQLENALLNLVINARDAVPVAGLISVRSQALRLVAQEGALAAGDYVRLSVEDNGCGIAQDVIDRVFDPFFTTKPVGQGTGLGLSMVYGFIKQTGGHVQIKSEQGQGTRICLYLPCGAATA” here?
A: failed
